This is an account of results in publication PMC10509167, “Identification and characterization of endo-α-, exo-α-, and exo-β-D-arabinofuranosidases degrading lipoarabinomannan and arabinogalactan of mycobacteria” (Nature Communications, 2023).

This data set deals with the molecule itself. In words: crystal structure; ExoMA2 in complex with Tris (1.75 Å) and with β-D-Araf (1.35 Å); dimer in the asymmetric unit; sitting-drop vapor diffusion, 20 °C.

B1: ExoMA2 (MIAR_33170), GH116 exo-β-D-arabinofuranosidase from Microbacterium arabinogalactanolyticum, recombinant (enzyme, UniProt A0AAJ6N6D6 1-867, looked up)
chain: MSKIKSRRARRIPHTAESVAFPLGGIGTGNVSLGARGELRDWEFENLPDKGRLNPRSFFAIHAAPQGGPSATRVLEARSSGRHDRDAGYGFDELAGLPRLDSAGLHGEYPVVDIDFTDATLPVTVSLHAFTPLVPLDADASGIPAAVLRYRVVNPGDAPVTVTVVGSMSHTAGRGAPGPDAPWGMRGTQSVRWRESDGIRGLDFDIDLDHDDPGYGTMSLTTTDSSTTVKPQWVTSYWPDGARLFWNDLADDGLLAPEARLTLEDKPRGLFAERDADPDAPALTEEQMLAKLPRVRTGSLGIVHTLAPGEERDFEFVLAWSFPNRRRGWHGHIIFDDALEDGAPDLRDELGPIVRNHYAVRWPDAWAAAAQLHRDLPALEGATDAFVEELYGGSLDPVLADAVGANIAALRSTTCFVLESPTPELGDGPVFAAWEGSFDHGGSCEGTCTHVWSYAQTAAWLFPGLERSARRAEYLLETDESGAQKFRGNRIFGAPRWFIGPAVDGQLGTFLRLHREWRFCGDDEFLRELWPAAARTLDYAAREWDHDGDGLLDGEMHNTYDIEFHGVEPLSNIIHLAALRAGVRMAGHLGDTARAQEWALRADHVAAAIEGVLWNGEYYRQVIDDVDAHRYQYGDGVLSDQLLGQFHAFLGGLGYLLPEAHVRSALDAIVQHNHRGDLRDHESTQRVYALNDEGGLLLASWPEGGRPALPFVYADEVWTGIEHQVAVSLLFAGRYDDALRIERTLRARYDGAHRSPWNEIECGNHYARSLASWGLLIGASGAQWDAGARTLSFDPVLPGDARFLFTTATGWGGVEIGDDVITLRLHGGALDLDELRLRGEVAGRGIHLDAGETRTLTLTLEHHHHHH
notes: ExoMA2, product of gene MIAR_33170 of Microbacterium arabinogalactanolyticum JCM 9171; primers are in Supplementary Data 3; source: E. coli BL21 (DE3), purified (IMAC, anion exchange chromatography, SEC)
Consider B1, for which the “stoichiometry N” value came to 2.
